B1: Proteus mirabilis UreE (natural protein)
chain: MKKFTQIIDQQKALELTSTEKPKLTLCLTMDERTKSRLKVALSDGQEAGLFLPRGTVLKEGDILLSEEGDVVTIEAAKEQVSTVYSDDPLLLARVCYHLGNRHVPLQIEAGWCRYFHDHVLDDMARGLGATVVVGLEKYQPEPGAYGGSSGGHHHHHDHHH
notes: Cloned from strain ATCC 12453; In the crystal the models end at residue 147 (chain A) and 144 (chain B); the C-terminal tails are not resolved; also called PmUreE; full-length PmUreE
B2: PmUreE-ΔC17 (domain or fragment)
chain: MKKFTQIIDQQKALELTSTEKPKLTLCLTMDERTKSRLKVALSDGQEAGLFLPRGTVLKEGDILLSEEGDVVTIEAAKEQVSTVYSDDPLLLARVCYHLGNRHVPLQIEAGWCRYFHDHVLDDMARGLGATVVVGLEKYQPEPG
notes: UreE of Proteus mirabilis ATCC 12453 with a stop codon inserted after Gly144 (lacks the last 17 residues, the histidine-rich C-terminus); Made from the full-length construct of m1 by a stop codon after Gly144; also called PmUreE-ΔC17 truncation mutant; C-terminally truncated mutant of PmUreE; source: E. coli BL21 (DE3), purified (Ni-NTA, SEC)

Target: the molecule itself
Assay: SEC; HiLoad 16/600 Superdex 75, 20 mM HEPES pH 7.5, 100 mM NaCl with or without 1 mM EDTA, 277 K; elution volume compared with molecular weight

| Protein | stoichiometry N |
| --- | --- |
| B1 | ~2 |
| B2 | 2 |
